Laboratory results: patent US20240110213A1 (Chr. Hansen HMO GmbH, priority 2020, published 2024)
Like-named read-outs stand apart in the source and are kept apart here.

Tests used:
E. coli wild-type LacY = E. coli wild-type LacY (Escherichia coli, UniProt P02920); conditions: cited from earlier work
[1] = system: LNT-producing E. coli strain; assay: Lacto-N-tetraose production in lab scale fermentation (3 litre); assay type: cell-based
Procedure: The identity of lacto-N-tetraose being produced was determined by multiple reaction monitoring (MRM) using an LC triple-quadrupole MS detection system (Shimadzu LCMS-8050). Precursor ions were selected and analyzed in quadrupole 1, followed by collision-induced fragmentation (CID) with argon and selection of fragment ions in quadrupole 3.
The oligosaccharide LNT in particle-free culture supernatants or cytoplasmic fractions were separated by high performance liquid chromatography (HPLC) using a Waters XBridge Amide HPLC column (3.5 μm, 2.1 […] 50 mm) for both neutral or acidic sugars. Neutral sugars were eluted with isocratic flow of H2O with 0.1% (v/v) ammonium hydroxide. The HPLC system encompasses a Shimadzu Nexera X2 SIL-30ACMP autosampler run at 8° C., a Shimadzu LC-20AD pump, and a Shimadzu CTO-20AC column oven running at 35° C. for elution of neutral sugars and was adjusted to 50° C. for elution of acidic sugars. For the analysis of LNT 1 μl was injected into the instrument. Flow rate was set 0.3 mL/min corresponding to a run time of 5 min. LNT was analyzed in negative ion mode. The mass spectrometer was operated at unit resolution. Collision energy, Q1 and Q3 pre-bias were optimized for each analyte. Quantification methods were established using commercially available standards (Carbosynth and Elicityl).
The impact of reduced lactose import and reduced lactose sensitivity by a bacterial strain on its oligosaccharide production was analyzed in a small-scale fermentation.
In a first set of fermentations each of the bacterial strains was inoculated from a preculture in a fermentation broth containing 20 mM lactose.
In these cultures, the lactose feed (2.5 ml/L/h) was started at the end of the batch phase.

lactose permease genes = assay: Expression analysis of lactose permease genes by qPCR; assay type: cell-based, E. coli BL21(DE3); conditions: normalized to gapA, compared with parental strain, FIG. 3
Procedure: A metabolically engineering derivative of E. coli BL21(DE3) which was capable of producing lacto-N-tetraose (LNT) was obtained by genetic engineering.
For expression analyses individual clones obtained from above-referenced mutagenesis approach were inoculated in 25 ml mineral salts medium in shaking flasks. Expression analysis of each clone was performed in 3 replicates. The bacterial cells were grown at 30° C. and a relative humidity of 80% with constant agitation at 120 rpm. After 20 h of culturing, the optical densities of these precultures were determined and the main cultures were seeded to an OD600 of 0.05 in 25 ml of mineral salts medium. The main cultures were cultured for 20 h under the same conditions as the pre-cultures were cultured. Then the bacterial cells were harvested by centrifugation and used for extraction of RNA and subsequent expression analysis by qPCR. The relative quantification of expression levels was performed using the comparative Δ cycle threshold method, the calculated relative expression values were normalized to gapA and compared with the expression level in the parental strain used as control.

[2] = system: E. coli strains expressing different variants of the E. coli lactose permease LacY; assay type: cell-based
Procedure: Bacterial cell pellets from these cultures were used to inoculate 100 ml minimal medium in shaking flasks. These cultures were incubated for 16 hours at 37° C. in a shaker. The bacterial cells were then sedimented by centrifugation and the resulting pellets were washed twice with fresh cold (4° C.) culture medium and finally resuspended in cold medium. The optical density (OD600) of the cell suspension was set to 5 with cold medium, and the cell suspension is were stored on ice until use for the internalization assay.
Three minutes prior to the transport assay, the bacterial cells were placed in a 37° C. thermo block. […] […] The bacterial cells on the filter were washed twice with 100 mM LiCl and the filter was used subsequently to quantify remaining radioactivity in a Tricarb 2800 scintillation counter (Perkin Elmar, Waltham, MA). To this end, the filters were transferred into scintillation tubes and overlaid with 6 ml Rotiszint eco plus (Roth, Karlsruhe, DE).
In a second set of experiments, the transport assays were started by addition of a mixture of ^14C-labelled lactose and non-radiolabeled lactose to a final concentration of 5 mM lactose and 550,000 dpm. The bacterial cells were collected by filtration after 60 seconds incubation, and washed twice with 3 ml medium containing 5 mM unlabelled lactose.

[3] = system: bacterial LNT production strains; assay: Lactose sensitivity of bacterial LNT production strains (OD600 in shaking flasks); assay type: cell-based, E. coli BL21(DE3); conditions: 20 hours after addition, compared to growth in the absence of lactose
Procedure: The culture medium used to grow the cells for the production of the desired oligosaccharide contained: 3 g/L KH2PO4, 12 g/L K2HPO4, 5 g/L (NH4)SO4, 0.3 g/L citric acid, 0.1 g/L NaCl, 2 g/L MgSO4×7 H2O and 0.015 g/L CaCl2×6 H2O, supplemented with 1 ml/L trace element solution (54.4 g/L ammonium ferric citrate, 9.8 g/L MnCl2×4 H2O, 1.6 g/L […], 1 g/L CuCl2×2 H2O, 1.9 g/L MnCl2×4 H2O, 1.1 g/L Na2MoO4×2 H2O, 1.5 g/L Na2SeO3, 1.5 g/L NiSO4×6 H2O). The pH of the medium was adjusted to 7.0. Lactose was added to the medium in a concentration of 10 mM to 25 mM for synthesis of the desired oligosaccharide by the cells and for testing the cells' sensitivity to lactose.
The bacterial cells were grown at 30° C. and 80% relative humidity with constant agitation at 120 rpm. After 20 h culturing, the optical density of the pre-cultures was determined and the main cultures were inoculated to an OD600 of 0.3 in 25 ml of mineral salts medium. Lactose was added to the culture medium two hours after inoculation of the cultures to final concentrations of 10 or 25 mM. The optical densities (OD600) of the main cultures were determined 20 hours after addition of lactose.

Sequence of E. coli wild-type LacY (P02920 whole entry): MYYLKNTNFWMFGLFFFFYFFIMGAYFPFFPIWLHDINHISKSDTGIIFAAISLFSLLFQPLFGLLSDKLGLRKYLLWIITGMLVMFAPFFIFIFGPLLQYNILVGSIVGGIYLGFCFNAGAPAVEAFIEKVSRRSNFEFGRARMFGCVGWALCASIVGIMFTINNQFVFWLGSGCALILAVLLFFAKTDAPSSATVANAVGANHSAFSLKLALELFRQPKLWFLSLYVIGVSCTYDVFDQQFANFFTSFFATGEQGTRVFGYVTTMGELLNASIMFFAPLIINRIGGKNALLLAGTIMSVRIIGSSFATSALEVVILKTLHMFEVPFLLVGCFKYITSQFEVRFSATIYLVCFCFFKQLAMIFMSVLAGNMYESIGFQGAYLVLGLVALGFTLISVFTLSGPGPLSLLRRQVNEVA

O=C[C@H](O)[C@@H](O)[C@H](O[C@@H]1O[C@H](CO)[C@H](O)[C@H](O)[C@H]1O)[C@H](O)CO [lactose, β-D-galactopyranosyl-(1→4)-D-glucose]
Km (E. coli wild-type LacY): 620 µM

OC[C@H]1O[C@H](OCC2O[C@@H](O)[C@H](O)[C@@H](O)[C@@H]2O)[C@H](O)[C@@H](O)[C@H]1O (stereo partly shown) [melibiose]
Km (E. coli wild-type LacY): 240 µM

OC[C@H]1O[C@@H](O[C@@H]2[C@@H](CO)OC(O)(CO)[C@H]2O)[C@H](O)[C@@H](O)[C@H]1O (mixture of isomers) [lactulose]
Km (E. coli wild-type LacY): 240 µM

CS[C@@H]1O[C@H](CO)[C@H](O)[C@H](O)[C@H]1O [TMG, methyl-1-thio-β,D-galactopyranoside, reference compound]
Km (E. coli wild-type LacY): 540 µM

B1: LacY(L293R): E. coli LacY variant with leucine at position 293 substituted with arginine (protein, UniProt P02920 1-417, looked up, variant L293R)
Lactose permease: MYYLKNTNFWMFGLFFFFYFFIMGAYFPFFPIWLHDINHISKSDTGIIFAAISLFSLLFQPLFGLLSDKLGLRKYLLWIITGMLVMFAPFFIFIFGPLLQYNILVGSIVGGIYLGFCFNAGAPAVEAFIEKVSRRSNFEFGRARMFGCVGWALCASIVGIMFTINNQFVFWLGSGCALILAVLLFFAKTDAPSSATVANAVGANHSAFSLKLALELFRQPKLWFLSLYVIGVSCTYDVFDQQFANFFTSFFATGEQGTRVFGYVTTMGELLNASIMFFAPLIINRIGGKNALRLAGTIMSVRIIGSSFATSALEVVILKTLHMFEVPFLLVGCFKYITSQFEVRFSATIYLVCFCFFKQLAMIFMSVLAGNMYESIGFQGAYLVLGLVALGFTLISVFTLSGPGPLSLLRRQVNEVA
growth kinetics throughout the fermentation ([1]; LNT fermentation, FIG. 7): regular growth kinetics
optical density reached in the culture ([1]; LNT fermentation, FIG. 7, compared to strain bearing LacY): higher
setback in the OC600 and lactose-caused cell lysis ([1]; continuous lactose feed 3.2 ml/L/h, lactose level kept high): without causing any setback in the OC600 and without apparent lactose-caused cell lysis
growth ([1]; fermentation broth containing 20 mM lactose at inoculation): did not display any problems in growth
relative expression (lactose permease genes): at the same level
lactose internalization (radioactivity incorporated) ([2]; exogenous lactose 0.5 mM, 30 seconds, FIG. 5A): reduced but detectable
lactose internalization (radioactivity incorporated) ([2]; exogenous lactose 5 mM, 60 seconds, FIG. 5B): reduced but detectable
growth (OD600) ([3]; 10 mM lactose): not reduced
growth (OD600) ([3]; 25 mM lactose): not reduced
